# Measurements published in patent US20220378829A1 (CRISPR THERAPEUTICS, published 2022).
# T1: CD70 on human cancer cell lines (A498, ACHN, SK-OV-3, Hs 766T, NCI-H1975, Calu-1, DU 145, SNU-1, MM.1S, HuT78) (human, UniProt P32970 1-193)
# T1 sequence (looked up): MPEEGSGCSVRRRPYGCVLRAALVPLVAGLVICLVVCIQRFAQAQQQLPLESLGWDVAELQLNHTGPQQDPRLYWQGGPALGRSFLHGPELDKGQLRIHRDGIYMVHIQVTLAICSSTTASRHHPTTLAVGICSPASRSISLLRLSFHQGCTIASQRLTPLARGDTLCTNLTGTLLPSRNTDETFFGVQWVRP
# Target: T1, CD70 on human cancer cell lines (A498, …)
# Experiment: cell-based or functional assay
binder,measurement,value
"anti-CD70 CAR (CD70B scFv with 41BB), expressed on the surface of gene-edited human T cells (CTX130: TRAC-/β2M-/CD70-/anti-CD70 CAR+ T cells) (other) QVQLVQSGAEVKKPGASVKVSCKASGYTFTNYGMNWVRQAPGQGLKWMGWINTYTGEPTYADAFKGRVTMTRDTSISTAYMELSRLRSDDTAVYYCARDYGDYGMDYWGQGTTVTVSSGGGGSGGGGSGGGGSGDIVMTQSPDSLAVSLGERATINCRASKSVSTSGYSFMHWYQQKPGQPPKLLIYLASNLESGVPDRFSGSGSGTDFTLTISSLQAEDVAVYYCQHSREVPWTFGQGTKVEIKSAAAFVPVFLPAKPTTTPAPRPPTPAPTIASQPLSLRPEACRPAAGGAVHTRGLDFACDIYIWAPLAGTCGVLLLSLVITLYCNHRNRKRGRKKLLYIFKQPFMRPVQTTQEEDGCSCRFPEEEEGGCELRVKFSRSADAPAYQQGQNQLYNELNLGRREEYDVLDKRRGRDPEMGGKPRRKNPQEGLYNELQKDKMAEAYSEIGMKGERRRGKGHDGLYQGLSTATKDTYDALHMQALPPR","cell lysis of A498 cells by TRAC-/β2M-/CD70-/anti-CD70 CAR+ T cells, T cell:A498 ratios 1:1 and 0.5:1, 24 h (Cell titer-Glo)",> 90%
same,"cell lysis of A498 cells by TRAC-/β2M-/anti-CD70 CAR+ T cells (2×KO), T cell:A498 ratios 1:1 and 0.5:1, 24 h (Cell titer-Glo)",< 90%
